T1: Tyro3 ECD FNIII 1-FNIII-2
T1 construct: also called FNIII 1 + FNIII 2 fragment of hTyro3 ECD, His-Strep tagged
T1 fragment: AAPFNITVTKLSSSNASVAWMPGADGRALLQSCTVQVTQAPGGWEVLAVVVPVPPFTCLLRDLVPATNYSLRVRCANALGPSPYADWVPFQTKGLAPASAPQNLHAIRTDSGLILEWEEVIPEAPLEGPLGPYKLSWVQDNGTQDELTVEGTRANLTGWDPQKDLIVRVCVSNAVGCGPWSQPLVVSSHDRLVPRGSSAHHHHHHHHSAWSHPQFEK

T2: Ig-1 domain fragment of human Tyro3 ECD, His-Strep tagged (human)
T2 chain: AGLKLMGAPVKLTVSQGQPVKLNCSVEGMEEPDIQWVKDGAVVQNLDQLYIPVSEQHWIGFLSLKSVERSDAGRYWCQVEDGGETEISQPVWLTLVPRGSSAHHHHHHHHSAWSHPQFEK

T3: Ig-1 and Ig-2 domains fragment of human Tyro3 ECD, His-Strep tagged (human)
T3 construct: also called Ig1-Ig2 fragment
T3 chain: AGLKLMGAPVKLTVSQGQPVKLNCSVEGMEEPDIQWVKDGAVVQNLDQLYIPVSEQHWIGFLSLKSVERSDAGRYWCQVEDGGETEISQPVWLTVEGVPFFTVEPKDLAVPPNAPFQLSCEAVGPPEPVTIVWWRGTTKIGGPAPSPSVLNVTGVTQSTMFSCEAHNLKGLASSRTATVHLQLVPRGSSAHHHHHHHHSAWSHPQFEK

T4: cynomolgus Tyro3 ECD, His-Strep tagged
T4 construct: also called cyno TYRO3 ECD 8hisstrep
T4 extracellular domain: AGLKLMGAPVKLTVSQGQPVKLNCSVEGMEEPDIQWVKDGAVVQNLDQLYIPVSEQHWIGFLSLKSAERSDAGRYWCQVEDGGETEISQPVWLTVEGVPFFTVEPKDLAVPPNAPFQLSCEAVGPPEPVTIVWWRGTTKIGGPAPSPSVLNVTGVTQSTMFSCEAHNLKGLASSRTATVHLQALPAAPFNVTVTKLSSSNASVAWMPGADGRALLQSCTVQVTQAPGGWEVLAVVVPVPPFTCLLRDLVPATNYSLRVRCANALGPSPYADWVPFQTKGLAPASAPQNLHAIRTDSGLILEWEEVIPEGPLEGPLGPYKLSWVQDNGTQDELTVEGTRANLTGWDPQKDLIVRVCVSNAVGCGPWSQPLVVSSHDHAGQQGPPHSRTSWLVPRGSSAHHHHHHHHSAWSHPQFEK

T5: Tyro3 ECD Ig2-FNIII 1
T5 construct: also called Ig2 + FNIII 1 fragment of hTyro3 ECD, His-Strep tagged
T5 fragment: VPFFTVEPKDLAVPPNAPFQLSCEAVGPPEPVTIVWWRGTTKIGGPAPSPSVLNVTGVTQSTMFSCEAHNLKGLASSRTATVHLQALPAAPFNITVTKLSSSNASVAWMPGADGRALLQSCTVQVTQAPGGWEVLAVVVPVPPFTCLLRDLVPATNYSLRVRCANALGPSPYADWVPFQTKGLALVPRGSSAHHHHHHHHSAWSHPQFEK


Legend:
[1] = target: T1, Tyro3 ECD FNIII 1-FNIII-2; test: sandwich ELISA, Strep-tagged fragment captured on StrepMAB plate, scFv 10 µg/mL (Table 17), anti-FLAG-HRP
[2] = target: T2, Ig-1 domain fragment of human Tyro3 …; test: as above
[3] = target: T3, Ig-1 and Ig-2 domains fragment of human …; test: as above
[4] = target: T4, cynomolgus Tyro3 ECD, His-Strep tagged; test: sandwich ELISA, Strep-tagged cynomolgus Tyro3 ECD captured on StrepMAB plate, scFv 3-fold from 10 µg/mL, anti-FLAG-HRP
Protocol: [The procedure below names another species; the source lists this species under the same test.] A double sandwich ELISA was developed. This assay consisted in measuring the binding of the anti-Tyro3 antibodies to be tested on immobilized strep-tagged entire human Tyro3 ECD captured directly on ELISA plate pre-coated with an anti-strep mAb (StrepMAB-Immo coated microplates from IBA biotech). Briefly, the 96 wells of StrepMAB-Immo coated microplate were washed three times with 300 μL of the PBS Tween 0.2% (referred as ELISA washing solution). The capture of an excess of purified strep tagged hTyro3 ECD protein was achieved by a one hour incubation at room temperature. In these experiments, 3 μg of purified protein diluted in PBS, BSA 1% (referred as ELISA diluent solution) were immobilized per well. The wells were washed three times with 300 μL of the washing solution. The non-specific binding sites on the well surface were blocked during 60 min at room temperature with 200 μL/well of blocking solution (PBS, BSA 3%). The wells were washed five times with 300 μL of the washing solution. Then, 100 μl (in duplicates) of the different concentrations of anti-Tyro3 antibodies to be tested diluted in ELISA diluent solution, were added per well and allowed to incubate during 1 hour at room temperature. An Irrelevant control IgG2656 was also added in this experiment. For anti-Tyro3 antibodies in the ScFv format, experiments were performed with 6 concentrations in duplicates (FIG. 3A). For anti-Tyro3 antibodies in the IgG format, experiments were performed with 9 concentrations in duplicates (FIG. 3B). […] For IgGs experiments, starting concentration for first dilution was 3 μg/ml and then dilutions of 3 fold in the ELISA diluent solution were performed. The wells were washed five times with 300 μL of the washing solution. […] The mix was allowed to incubated 60 min at room temperature.

Tyro3 ECD Ig2-FNIII 1 = target: T5, Tyro3 ECD Ig2-FNIII 1; test: sandwich ELISA, Strep-tagged fragment captured on StrepMAB plate, scFv 10 µg/mL (Table 17), anti-FLAG-HRP

Binder | binding result [1] | binding result [2] | binding result [3] | binding result [4] | binding result (Tyro3 ECD Ig2-FNIII 1)
anti-Tyro3 scFv 2414 (scFv, V domains shown, Tested as a single-chain Fv made in E. coli) VH: EVQLVQSGADVKKPGASLTISCQASGYTFTDYWISWVRQKPGKGLEWMGQINRHASNTMYGPSFQGHVTISADRSTATAYLQWRSLEASDTAMYYCVRSGGATSGGTIPEYYQHWGPGTLVTVSS VL: SYELTQPPSVSVSPGQTARITCSGDALPKKYAYWYQQKSGQAPVLVIYEDWKRASGIPERFSGSSSGTMATLTISGAQVEDEADYYCYSQERKGNYFVFGGGTKLTVL | no binding (tested: 10 µg/mL) | binds | binds | binds | –
anti-Tyro3 scFv 2717 (scFv, V domains shown, Tested as a single-chain Fv made in E. coli) VH: EVQLVQSGADVKKPGASLTISCQASGYTFTDYWISWVRQKPGKGLEWMGEIFLPPSTTVYGPSFQGHVTISADRSTATAYLQWRSLEASDTAMYYCVRQTRLTSGGTIPEYYQHWGPGTLVTVSS VL: SYELTQPPSVSVSPGQTARITCSGDALPKKYAYWYQQKSGQAPVLVIYEDNKRGSGIPERFSGSSSGTMATLTISGAQVEDEADYYCYSKSPEGNYMVFGGGTKLTVL | no binding (tested: 10 µg/mL) | binds | no binding (tested: 10 µg/mL) | binds | no binding (tested: 10 µg/mL)
anti-Tyro3 scFv 2709 (scFv, V domains shown, Tested as a single-chain Fv made in E. coli) VH: EVQLVQSGADVKKPGASLTISCQASGYTFTDYWISWVRQKPGKGLEWMGAISRNGSTTYYGPSFQGHVTISADRSTATAYLQWRSLEASDTAMYYCVRSGGLTSGGTIPEYYQHWGPGTLVPVSS VL: SYELTQPPSVSVSPGQTARITCSGDALPKKYAYWYQQKSGQAPVLVIYEDKKRVSGIPERFSGSSSGTMATLTISGAQVEDEADYYCYSLAVDGNYGVFGGGTKLTVL | no binding (tested: 10 µg/mL) | binds | binds | binds | no binding (tested: 10 µg/mL)
anti-Tyro3 scFv 2711 (scFv, V domains shown, Tested as a single-chain Fv made in E. coli) VH: EVQLVQSGADVKKPGASLTISCQASGYTFTDYWISWVRQKPGKGLEWMGQIRGQHSSTLYGPSFQGHVTISADRSTATAYLQWRSLEASDTAMYYCVRHGASTSGGTIPEYYQHWGPGTLVTVSS VL: SYELTQPPSVSVSPGQTARITCSGDALPKKYAYWYQQKSGQAPVLVIYEDAKRSSGIPERFSGSSSGTMATLTISGAQVEDEADYYCYSLSDSGNYFVFGGGTKLTVL | no binding (tested: 10 µg/mL) | binds | binds | binds | binds
anti-Tyro3 scFv 2412 (scFv, V domains shown, Tested as a single-chain Fv made in E. coli) VH: EVQLVQSGADVKKPGASLTISCQASGYTFTDYWISWVRQKPGKGLEWMGRIRPLLSHTMYGPSFQGHVTISADRSTATAYLQWRSLEASDTAMYYCVRSWLATSGGTIPEYYQHWGPGTLVTVSS VL: SYELTQPPSVSVSPGQTARITCSGDALPKKYAYWYQQKSGQAPVLVIYEDAKRVSGIPERFSGSSSGTMATLTISGAQVEDEADYYCYSASANGNYRVFGGGTKLTVL | no binding (tested: 10 µg/mL) | binds | binds | binds | binds
anti-Tyro3 scFv 2410 (scFv, V domains shown, Tested as a single-chain Fv made in E. coli) VH: EVQLVQSGADVKKPGASLTISCQASGYTFTDYWISWVRQKPGKGLEWMGQIVPRASRTNYGPSFQGHVTISADRSTATAYLQWRSLEASDTAMYYCVRPYFQTSGGTIPEYYQHWGPGTLVTVSS VL: SYELTQPPSVSVSPGQTARITCSGDALPKKYAYWYQQKSGQAPVLVIYEDEKRASGIPERFSGSSSGTMATLTISGAQVEDEADYYCYSQERNGNYAVFGGGTKLTVL | no binding (tested: 10 µg/mL) | binds | binds | binds | –

Further lines, results first:

binding result [1] | binding result [2] | binding result [3] | binding result [4] | binding result (Tyro3 ECD Ig2-FNIII 1) | Binder
no binding (tested: 10 µg/mL) | binds | binds | binds | binds | anti-Tyro3 scFv 2713 (scFv, V domains shown, Tested as a single-chain Fv made in E. coli) VH: EVQLVQSGADVKKPGASLTISCQASGYTFTDYWISWVRQKPGKGLEWMGRISRHGSQTYYGPSFQGHVTISADRSTATAYLQWRSLEASDTAMYYCVRAGGQTSGGTIPEYYQHWGPGTLVTVSS VL: SYELTQPPSVSVSPGQTARITCSGDALPKKYAYWYQQKSGQAPVLVIYEDHKRASGIPERFSGSSSGTMATLTISGAQVEDEADYYCYSISPAGNYGVFGGGTKLTVL
no binding (tested: 10 µg/mL) | binds | binds | binds | binds | anti-Tyro3 scFv 2415 (scFv, V domains shown, Tested as a single-chain Fv made in E. coli) VH: EVQLVQSGADVKKPGASLTISCQASGYTFTDYWISWVRQKPGKGLEWMGQIRGPASATHYGPSFQGHVTISADRSTATAYLQWRSLEASDTAMYYCVRHQQQTSGGTIPEYYQHWGPGTLVTVSS VL: SYELTQPPSVSVSPGQTARITCSGDALPKKYAYWYQQKSGQAPVLVIYEDKKRISGIPERFSGSSSGTMATLTISGAQVEDEADYYCYSTSTGGNYMVFGGGTKLTVL

From patent publication US20180105596A1 (ELSALYS BIOTECH, published 2018)
